One may read the Kd as the free concentration of one partner at which half of the binding sites on the other are occupied at equilibrium, for simple one-to-one binding. A high value points to weaker binding. Broadly, the koff is a measure of how fast the partners let go of each other. A lower koff goes with slow dissociation. For orientation: kon means the second-order rate constant of association. The low end stands for slower complex formation, the high end for faster complex formation. As a reminder, the stoichiometry N is a count of units in the complex or per binding partner.

Consider two substances from paper PMC11981803.

Assay [1] addresses transmembrane domain of SaeS (SaeS TM), reconstituted into DMPC/DHPC bicelles (Staphylococcus aureus). Description: SPR.
Assay [2] shares this target. Description: SDS-PAGE.

Sequence of transmembrane domain of SaeS (SaeS TM), reconstituted into DMPC/DHPC bicelles (Staphylococcus aureus) (Q2FIT5 whole entry, the tested form may be a part): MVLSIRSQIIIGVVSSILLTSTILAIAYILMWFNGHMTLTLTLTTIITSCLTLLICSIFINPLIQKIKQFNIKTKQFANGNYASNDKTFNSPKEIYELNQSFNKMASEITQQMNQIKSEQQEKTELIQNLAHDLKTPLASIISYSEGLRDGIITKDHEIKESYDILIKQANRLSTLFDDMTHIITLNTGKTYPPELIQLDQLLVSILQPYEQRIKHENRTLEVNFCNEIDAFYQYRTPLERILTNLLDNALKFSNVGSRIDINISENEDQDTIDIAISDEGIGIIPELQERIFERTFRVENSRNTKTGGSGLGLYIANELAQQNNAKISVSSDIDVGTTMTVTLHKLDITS

As to “Human neutrophil defensin-1 (from UniProt P59665 65-94) (peptide)”, in assay [1], the equilibrium dissociation constant (Kd) is 1070 nM, the off-rate constant (koff) is 0.0186 s⁻¹ and the kon amounted to 17400 M⁻¹ s⁻¹.

Substance “transmembrane domain of SaeS (SaeS TM), reconstituted into DMPC/DHPC bicelles (domain or fragment)” had a stoichiometry N in assay [2] of 2.
